The values that follow come from patent US20220089784A1 (University of California, published 2022).

The Kd is the free concentration of one partner at which half of the binding sites on the other are occupied at equilibrium, for simple one-to-one binding. Read a high Kd as lower affinity.

What all share (test): yeast scFv FACS
Assay [1] has as its target T1, BoNT/C1 holotoxin (Clostridium botulinum, UniProt P18640 2-1291).
T1 sequence: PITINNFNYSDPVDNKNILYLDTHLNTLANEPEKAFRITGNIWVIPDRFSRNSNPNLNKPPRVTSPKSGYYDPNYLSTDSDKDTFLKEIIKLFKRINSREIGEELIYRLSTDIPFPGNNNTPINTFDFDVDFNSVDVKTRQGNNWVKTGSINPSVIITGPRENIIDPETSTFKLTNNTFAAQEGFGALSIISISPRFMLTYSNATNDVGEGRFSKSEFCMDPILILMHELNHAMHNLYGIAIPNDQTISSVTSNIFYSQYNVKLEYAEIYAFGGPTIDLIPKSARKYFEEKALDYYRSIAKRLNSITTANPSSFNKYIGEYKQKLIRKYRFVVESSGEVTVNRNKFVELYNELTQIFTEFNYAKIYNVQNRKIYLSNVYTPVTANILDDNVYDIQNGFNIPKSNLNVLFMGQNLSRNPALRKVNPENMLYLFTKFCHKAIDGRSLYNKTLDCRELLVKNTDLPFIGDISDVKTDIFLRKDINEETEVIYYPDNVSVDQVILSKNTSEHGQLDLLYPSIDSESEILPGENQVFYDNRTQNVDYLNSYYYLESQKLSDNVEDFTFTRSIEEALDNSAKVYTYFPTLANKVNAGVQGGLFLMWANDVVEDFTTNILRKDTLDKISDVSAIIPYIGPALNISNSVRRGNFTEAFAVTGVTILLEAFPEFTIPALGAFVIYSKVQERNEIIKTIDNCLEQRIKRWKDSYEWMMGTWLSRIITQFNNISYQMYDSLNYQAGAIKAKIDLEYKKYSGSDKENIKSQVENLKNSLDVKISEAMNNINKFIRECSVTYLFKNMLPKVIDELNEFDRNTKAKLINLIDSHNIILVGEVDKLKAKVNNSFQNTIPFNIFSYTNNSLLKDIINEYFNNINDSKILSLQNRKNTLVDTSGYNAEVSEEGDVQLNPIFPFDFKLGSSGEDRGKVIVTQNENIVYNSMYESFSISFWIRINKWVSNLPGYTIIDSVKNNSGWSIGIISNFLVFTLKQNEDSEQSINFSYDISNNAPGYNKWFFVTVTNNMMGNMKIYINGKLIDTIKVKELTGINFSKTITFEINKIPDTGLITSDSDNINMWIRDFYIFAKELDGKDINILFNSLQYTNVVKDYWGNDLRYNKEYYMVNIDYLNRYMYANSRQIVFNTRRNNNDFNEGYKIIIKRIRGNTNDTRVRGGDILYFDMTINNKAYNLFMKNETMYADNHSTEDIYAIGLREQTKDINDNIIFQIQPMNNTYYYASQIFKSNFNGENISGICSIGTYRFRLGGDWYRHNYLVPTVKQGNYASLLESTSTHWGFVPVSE

The target in a further assay is T2, BoNT/D (Clostridium botulinum, UniProt P19321 2-1276).
T2 sequence: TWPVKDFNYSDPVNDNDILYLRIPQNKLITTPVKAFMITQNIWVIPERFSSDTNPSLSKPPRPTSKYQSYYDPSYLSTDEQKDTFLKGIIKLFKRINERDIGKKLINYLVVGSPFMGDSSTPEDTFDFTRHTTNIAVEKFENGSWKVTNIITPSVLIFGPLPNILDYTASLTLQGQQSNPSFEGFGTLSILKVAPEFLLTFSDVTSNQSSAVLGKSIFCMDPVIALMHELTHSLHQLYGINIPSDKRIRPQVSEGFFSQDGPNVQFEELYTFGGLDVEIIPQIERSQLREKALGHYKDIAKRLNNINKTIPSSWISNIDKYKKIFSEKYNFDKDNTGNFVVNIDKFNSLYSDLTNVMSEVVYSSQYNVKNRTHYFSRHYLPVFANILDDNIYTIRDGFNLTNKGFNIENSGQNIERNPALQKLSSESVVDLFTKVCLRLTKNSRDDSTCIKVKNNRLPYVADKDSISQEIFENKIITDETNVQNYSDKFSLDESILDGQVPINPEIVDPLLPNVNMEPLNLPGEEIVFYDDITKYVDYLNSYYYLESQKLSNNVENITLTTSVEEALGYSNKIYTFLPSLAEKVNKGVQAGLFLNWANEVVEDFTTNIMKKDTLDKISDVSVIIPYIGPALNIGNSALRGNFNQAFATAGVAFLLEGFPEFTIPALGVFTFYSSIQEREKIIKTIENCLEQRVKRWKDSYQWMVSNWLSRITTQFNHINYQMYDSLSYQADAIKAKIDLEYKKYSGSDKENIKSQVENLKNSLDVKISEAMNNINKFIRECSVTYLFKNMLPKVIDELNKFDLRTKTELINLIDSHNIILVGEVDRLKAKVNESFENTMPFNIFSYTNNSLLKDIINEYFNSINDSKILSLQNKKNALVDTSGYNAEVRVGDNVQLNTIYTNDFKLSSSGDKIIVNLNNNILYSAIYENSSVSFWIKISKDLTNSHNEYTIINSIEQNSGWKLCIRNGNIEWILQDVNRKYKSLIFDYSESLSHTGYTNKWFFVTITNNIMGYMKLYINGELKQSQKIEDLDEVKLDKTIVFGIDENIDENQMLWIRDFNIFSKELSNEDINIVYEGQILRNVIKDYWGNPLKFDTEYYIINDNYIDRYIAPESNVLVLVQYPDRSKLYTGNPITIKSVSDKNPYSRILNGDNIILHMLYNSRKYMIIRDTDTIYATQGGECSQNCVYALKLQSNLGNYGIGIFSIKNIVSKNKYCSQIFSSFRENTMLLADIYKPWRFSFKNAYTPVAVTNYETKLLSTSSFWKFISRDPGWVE

Assay [2] has as its target T1, BoNT/C1 holotoxin. The source holds these as a separate data set.

B1: 87C1 scFv (scFv, V domains shown)
VH: QVQLQQSGGGVVQPGRSLRLSCAGSGFTLSTYGMHWVRQAPGKGLEWVAVISNDGSKEYYADSVKGRFAISRDNSKNTLSLQMNGLRAEDTAIYYCAKAIKSYSTIGGACNLWGQGTMVTVSS
VL: DIVMTQSPSFLSASVGDRVTITCRASQSISSYLNWYQQKPGKAPKLLIYAASSLQSGVPSRFSGSRSGTYFTLTISSLQPEDFATYYCQQSYITWTFGQGTRLEIK
notes: human
B1 had a dissociation constant Kd in the assay with BoNT/C1 holotoxin [1] of 2 nM. The binding result with BoNT/D is given as “no binding (tested: ~1 µM)”.

B2: 1C2 scFv (scFv, V domains shown)
VH: QVQLQQSGAEVRKSGASVKVSCKTSGYTFTTYYIHWVRQAPGQGLEWMGMIDPRGGSASYAQRFQGRVTMTRDTSTTTVFLALNSLESNDTAVYYCARGGLPYQQLPLWGQGTLVTVSS
VL: not shown
notes: human
B2 came in with a Kd with BoNT/C1 holotoxin [1] of 24 nM. In addition, the binding result with BoNT/D is “no binding (tested: ~1 µM)”.

B3: 8DC6 scFv (scFv, V domains shown)
VH: EVQMVESGGGVVQPGRSLRLSCAASGFTFTSYAMHWVRQAPGKGLEWVAMISNDESNTKYADSVKGRFTISRDNSKNTLFLQMNSLRAEDTAMYSCARGGYYTRPLAFDTWGPGTTVTVSS
VL: DVVMTQSPSSVSASVGDRVTITCRASQGISSYLAWYQQKPGKVPKLLIYAASSLQRGVPSRFSGSGSGTDFTLTISRLQPEDVATYYCQKYNSAPLTFGGGTKVEIK
notes: human
Regarding B3, the binding result with BoNT/C1 holotoxin [2] was “no binding (tested: ~1 µM)”.

B4: 8DC7 scFv (scFv, V domains shown)
VH: QVQLVQSGGRLVRPGGSLRLSCAASGFVFSNYGMHWVRQAPGKGLEWVAFLTHGGTNKYYSDSVKGRLTISRDNAKSTLFLEVNSLRVEDTAIYYCVKEGQLDSKYYFDSWGQGTLVTVSS
VL: EIVLTQSPSSLSASVGDRVTITCRASQSISSYLAWYQQKPGKAPELLIYAASTLQSGVPSRFSGSGSGTDFTLTISSVQPEDFATYYCQQSYSTPFTFGQGTKVEIK
notes: human
Consider B4, for which the binding result with BoNT/C1 holotoxin [2] is listed as “no binding (tested: ~1 µM)”; with BoNT/D, “binds”.

B5: 8D2 scFv (scFv, V domains shown)
VH: QVQLVQSGAEVKKPGESLKISCKGSGYSFTSYWIGWVRQMPGKGLEWMGIIYPGDSDTRYSPSFQGQVTISADKSISTAYLQWSSLKASDTAMYYCVSYSSLDAFDIWGQGTMVTVSS
VL: EIVLTQSPSSLSASVGDRVTITCQASQDISNSLCWYQQKPGKAPKLLIYDASNLETGVPSRFSGSGSGTDFIFTISSLQPEDIATYYCQQYDNLLRVFGGGTKLEIK
notes: human
B5: in the assay with BoNT/C1 holotoxin [2], the binding result is “no binding (tested: ~1 µM)”.

B6: 8DC10 scFv (scFv, V domains shown)
VH: QVQLVQSGAEAKKPGASVKLSCQASGYTFTGYAIHWVRQAPGQRLEWLGWINCVNGNTKYSPKLPGRVTITRDTSATTAYLELNSLTSEDTAVYYCARSMLVAARVYYYYGMDVWGQGTMVTVSS
VL: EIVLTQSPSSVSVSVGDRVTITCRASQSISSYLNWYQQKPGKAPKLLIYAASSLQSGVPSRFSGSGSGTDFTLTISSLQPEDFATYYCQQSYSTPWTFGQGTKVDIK
notes: human
Turning to B6, the results for the binding result with BoNT/C1 holotoxin [2] and with BoNT/D were “no binding (tested: ~1 µM)” and “binds”, respectively.

B7: 8DC11 scFv (scFv, V domains shown)
VH: QVQLVESGPGLVKPSQTLSLSCTVSGGSVNHYYWNWIRQPPGKGLEWIGYIFYNGRTNYNPSLKSRVTMSVDTSKNQISLKLRSVTAADTAVYYCAREGARGYCSSTSCHDAFDIWGRGTLVTVSS
VL: EIVLTQSPSFLSASVGDRVTITCRASQGIRNDLAWFQQKPGKAPKLLIYATSTLQSGVPSRFSGSGSGTDFTLTISSLQPEDFADYYCQQAASFPLTFGGGTKVDIK
notes: human
Take B7: the binding result was “no binding (tested: ~1 µM)” in the assay with BoNT/C1 holotoxin [2] and “binds” in the assay with BoNT/D.

B8: 8DC12 scFv (scFv, V domains shown)
VH: QVQLVQSGGGVVQPGRSLRLSCAASGFTFSSYGMHWVRQAPGKGLEWVAAISYDGSNKYYADSVKGRFTISRDNSKNTLYLQMNSLRAEDTAVYYCAKGEHFVVVTAFATWGQGTLVTVSS
VL: DIVMTQSPSFLSASIGDRVTITCRASQSISNWLAWYQQKPGKAPKVLVYKASSLENGVPSRFSGSGSGTDFTLTITSLQPDDFATYYCQQYNAYPLTFGGGTKVEIK
notes: human
For B8, the binding result in the assay with BoNT/C1 holotoxin [2] was “no binding (tested: ~1 µM)”; in the assay with BoNT/D, “binds”.

B9: 8DC3.1 scFv (scFv, V domains shown)
VH: QVQLVQSRGGLVKPGGSLRLSCAASGFTFSSHSMNWVRQAPGKGLEWVSSISSSSSYIYYADSVKGRFTISRDNSKNSLYLQLNSLRAEDTAVYYCARDQGGGSVVGTNWFDPWGQGTLVTVSS
VL: SALTQPASVSGSPGQSVTISCTGTSSDVGGYNYVSWYQQHPGKAPKLMIYDVSKRPSGVPDRFSGSKSGNTASLTISGLQAEDEADYYCCSYAGRYTYVFGTGTKVTVL
notes: human
For B9, the binding result with BoNT/C1 holotoxin [2] is “no binding (tested: ~1 µM)”; with BoNT/D, “binds”.

B10: 8DC8.6 scFv (scFv, V domains shown)
VH: QVQLQQSGPGLVKPSETLSLTCTVSGGSISSAGYSWSWIRQSPGKGLECLGYIYQTGSTFYNLSLKGRVTMSLDRSKNQISLRLTSVVAADTAVYYCARVVGVYPGWFDSWGQGTLVTVSS
VL: DIQMTQSPSSLSASVGDRVTITCRASQGVSTDLAWYQQKPGRAPKLLIYRASSLQSGVPSRFSGSGSGTDFTLTISSLQPDDLATYYCQHYESYSPWTFGQGTQGEIK
notes: human
Regarding B10, the binding result with BoNT/C1 holotoxin [2] is given as “no binding (tested: ~1 µM)”; in the assay with BoNT/D, “binds”.

B11: 8DC8 scFv (scFv, V domains shown)
VH: QVQLQQSGPGLVKPSETLSLTCTVSGGSISSAGYSWSWIRQSPGKGLECLGYIYQTGSTFYNLSLKGRVTMSLDRSKNQISLRLTSVVAADTAVYYCARVVGVYPGWFDSWGQGTLVTVSS
VL: DIVMTQSPSTLSASVGDRVTITCRASQSINIWMAWYQQKPGKAPKLLVYKASSLESGVPSRFSGSGSGTEFTLTISSLQPDDFATYYCQQYNSYGTFGKGTKVEIK
notes: human
B11: the binding result with BoNT/C1 holotoxin [2] is recorded as “no binding (tested: ~1 µM)”.

B12: 8DC8.3 scFv (scFv, V domains shown)
VH: QVQLQQSGPGLVKPSETLSLTCTVSGGSISSAGYSWSWIRQSPGKGLECLGYIYQTGSTFYNLSLKGRVTMSLDRSKNQISLRLTSVVAADTAVYYCARVVGVYPGWFDSWGQGTLVTVSS
VL: DIVMTQSPSSLSASVGDRVTITCRASQSVSRWLAWYQQKPGKPPKLLIYEASSLESGVPSRFSGSGSGTDFTLTITSLQPEDFATYYCQQYENLPPSTFGGGTKLEIK
notes: human
As to B12, the binding result with BoNT/C1 holotoxin [2] is “no binding (tested: ~1 µM)”.
